Data taken from article PMC6639331, “Reconstitution of recombinant human CCR4-NOT reveals molecular insights into regulated deadenylation”.

How the values were obtained:
[1] = molecular target: NOT10:NOT11 (Homo sapiens, UniProt Q9H9A5;Q9UKZ1 25-707;257-498); experiment: EMSA; 1 uM protein, 100 nM RNA; EMSA: 20 mM Tris/HCl pH 7.5, 10 mM NaCl, 2 mM MgCl2, 0.1% BSA, 0.1% Orange G, 3% Ficoll 400; 100 nM RNA; 10% native PAGE in TBE pH 8.3; temperature not stated; details: protein: recombinant; tags: MBP (NOT10) and C-His6 (NOT11) removed; copies: 1;1; label: 5' 6-FAM
[2] = molecular target: T1, CAF40 module (NOT1:CAF40) (Homo sapiens, UniProt A5YKK6;Q92600 1351-1588;19-285); experiment: EMSA; 25 uM protein, 100 nM RNA; EMSA: 20 mM Tris/HCl pH 7.5, 10 mM NaCl, 2 mM MgCl2, 0.1% BSA, 0.1% Orange G, 3% Ficoll 400; 100 nM RNA; 10% native PAGE in TBE pH 8.3; temperature not stated; details: protein: recombinant; tags: MBP (NOT1) and His6 (CAF40) removed; copies: 1;1; label: 5' 6-FAM
[3] = molecular target: T1, CAF40 module (NOT1:CAF40); experiment: EMSA competition; 100 uM NOT1:CAF40 + 200 uM MBP-Bam CBM L17E;M24E; almost no effect on RNA binding; EMSA: 20 mM Tris/HCl pH 7.5, 10 mM NaCl, 2 mM MgCl2, 0.1% BSA, 0.1% Orange G, 3% Ficoll 400; 100 nM RNA; 10% native PAGE in TBE pH 8.3; temperature not stated; details: protein: recombinant; tags: MBP (NOT1) and His6 (CAF40) removed; copies: 1;1; label: 5' 6-FAM

Sequence of NOT10:NOT11 (Q9H9A5 25-707, chain 1 of 2, other chains not shown): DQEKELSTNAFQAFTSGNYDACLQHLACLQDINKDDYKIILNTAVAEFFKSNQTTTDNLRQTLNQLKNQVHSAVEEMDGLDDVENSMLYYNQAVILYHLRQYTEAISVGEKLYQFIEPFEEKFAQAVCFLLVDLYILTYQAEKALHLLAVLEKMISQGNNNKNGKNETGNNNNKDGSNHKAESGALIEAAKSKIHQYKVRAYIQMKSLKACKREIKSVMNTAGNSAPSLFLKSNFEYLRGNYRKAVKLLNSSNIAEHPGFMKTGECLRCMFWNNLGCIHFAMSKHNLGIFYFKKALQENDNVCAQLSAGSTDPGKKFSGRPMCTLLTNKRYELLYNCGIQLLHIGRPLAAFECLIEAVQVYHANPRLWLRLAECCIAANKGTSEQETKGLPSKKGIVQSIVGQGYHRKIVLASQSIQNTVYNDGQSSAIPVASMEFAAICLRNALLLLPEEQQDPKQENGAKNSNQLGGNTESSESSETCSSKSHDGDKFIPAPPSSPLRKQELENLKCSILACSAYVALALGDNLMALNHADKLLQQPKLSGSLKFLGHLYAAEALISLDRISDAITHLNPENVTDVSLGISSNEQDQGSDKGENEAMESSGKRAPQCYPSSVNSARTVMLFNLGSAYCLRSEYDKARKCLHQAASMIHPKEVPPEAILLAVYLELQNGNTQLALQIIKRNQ
T1 sequence (A5YKK6 1351-1588, chain 1 of 2): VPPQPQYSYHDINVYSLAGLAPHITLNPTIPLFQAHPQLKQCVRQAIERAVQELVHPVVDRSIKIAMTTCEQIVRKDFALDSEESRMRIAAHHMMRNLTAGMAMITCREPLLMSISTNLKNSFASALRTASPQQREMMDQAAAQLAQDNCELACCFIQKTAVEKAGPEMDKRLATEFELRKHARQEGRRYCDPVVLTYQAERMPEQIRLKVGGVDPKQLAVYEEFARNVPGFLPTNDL
T1 sequence (Q92600 19-285, chain 2 of 2): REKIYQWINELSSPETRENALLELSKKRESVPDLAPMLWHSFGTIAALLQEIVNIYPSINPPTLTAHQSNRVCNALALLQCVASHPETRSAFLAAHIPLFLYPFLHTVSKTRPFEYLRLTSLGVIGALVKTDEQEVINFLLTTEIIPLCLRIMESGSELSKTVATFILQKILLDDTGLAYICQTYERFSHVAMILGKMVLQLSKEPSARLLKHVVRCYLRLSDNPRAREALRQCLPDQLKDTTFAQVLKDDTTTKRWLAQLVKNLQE

| Binder | binding result [1] | binding result [2] | binding result [3] |
| --- | --- | --- | --- |
| CACAUCCAACUUCUCUAAAUAAAAAAAAAAAAAAAAAAAA (ssRNA) [13+7-mer-A20] | binds | binds |  |
| UCUAAAUAAAAAAAAAAAAAAAAAAAA (ssRNA) [7-mer-A20] | binds |  | binds |
